Test results reported in PMC10442075.

What was measured:
[1] = target: catalytic subunit of mouse PKA (mouse) (UniProt P05132)
[2] = target: catalytic subunit of mouse PKA (mouse) (UniProt P05132); remark: listed apart in the source

unphosphorylated GSK3β (Glycogen Synthase Kinase 3β), sequence (P49841 whole entry): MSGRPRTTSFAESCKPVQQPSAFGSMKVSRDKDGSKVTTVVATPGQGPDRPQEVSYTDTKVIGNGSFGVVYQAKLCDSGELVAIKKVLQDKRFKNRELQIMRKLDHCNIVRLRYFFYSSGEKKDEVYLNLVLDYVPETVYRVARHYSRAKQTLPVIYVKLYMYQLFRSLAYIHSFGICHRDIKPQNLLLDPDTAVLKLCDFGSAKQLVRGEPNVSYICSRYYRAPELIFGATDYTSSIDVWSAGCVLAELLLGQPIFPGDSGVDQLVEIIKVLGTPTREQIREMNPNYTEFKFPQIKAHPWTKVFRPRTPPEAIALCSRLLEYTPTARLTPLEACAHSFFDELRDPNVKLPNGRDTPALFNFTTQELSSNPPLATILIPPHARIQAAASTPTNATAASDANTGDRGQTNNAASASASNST

fold increase in KM for PKA phosphorylation of GSK3β at Ser9 (20 nM PKA) on addition of 500 nM full-length Axin [1]: 4 fold
fold increase in KM for PKA phosphorylation of GSK3β at Ser9 on addition of the Axin (381-407) peptide [2]: 7 fold
Substance: unphosphorylated GSK3β (Glycogen Synthase Kinase 3β) (from UniProt P49841 1-420) (enzyme)
